# In the array DNA melting data of Ke et al.:
# Assay: melting temperature; melt of duplexes
# Conditions: sodium 0.0675 M; strand 1 µM
row,Substance,Tm [°C]
1,CGACGTGCCTCATGTGCTG+CAGCACATCGTGCACGTCG ((((((((...((((((((+))))))))...)))))))),43
2,CGACGTGCGCGATGTGCTG+CAGCACATAGAGCACGTCG ((((((((.(.((((((((+)))))))).).)))))))),55.8
3,CGACGTGCATCATGTGCTG+CAGCACATTAAGCACGTCG ((((((((.(.((((((((+)))))))).).)))))))),48.6
4,CGACGTGCAGCATGTGCTG+CAGCACATGTAGCACGTCG ((((((((..(((((((((+)))))))))..)))))))),54.4
5,CGACGTGCACAATGTGCTG+CAGCACATGGGGCACGTCG ((((((((.(.((((((((+)))))))).).)))))))),55.2
6,CGACGTGCAATATGTGCTG+CAGCACATCACGCACGTCG ((((((((...((((((((+))))))))...)))))))),46.8
7,CGACGTGCGGGATGTGCTG+CAGCACATATCGCACGTCG (((((((((..((((((((+))))))))..))))))))),56.7
8,CGACGTGCCGAATGTGCTG+CAGCACATGTGGCACGTCG (((((((((..((((((((+))))))))..))))))))),57.2
9,CGACGTGCAGAATGTGCTG+CAGCACATGTAGCACGTCG ((((((((...((((((((+))))))))...)))))))),53.4
10,CGACGTGCATCATGTGCTG+CAGCACATTACGCACGTCG ((((((((.(.((((((((+)))))))).).)))))))),48.1
11,CGACGTGCTAAATGTGCTG+CAGCACATAATGCACGTCG ((((((((...((((((((+))))))))...)))))))),50.7
12,CGACGTGCTGCATGTGCTG+CAGCACATTCTGCACGTCG ((((((((.(.((((((((+)))))))).).)))))))),51.8
13,CGACGTGCCAAATGTGCTG+CAGCACATCATGCACGTCG ((((((((...((((((((+))))))))...)))))))),48.3
14,CGACGTGCTAAATGTGCTG+CAGCACATAAAGCACGTCG (((((((((..((((((((+))))))))..))))))))),53.1
15,CGACGTGCACTATGTGCTG+CAGCACATGTGGCACGTCG ((((((((...((((((((+))))))))...)))))))),48
16,CGACGTGCAGAATGTGCTG+CAGCACATTCAGCACGTCG ((((((((.((((((((((+)))))))))).)))))))),57.9
17,CGACGTGCAATATGTGCTG+CAGCACATCTTGCACGTCG ((((((((((.((((((((+)))))))).)))))))))),54.8
18,CGACGTGCGACATGTGCTG+CAGCACATATGGCACGTCG ((((((((.(.((((((((+)))))))).).)))))))),50.2
19,CGACGTGCGGAATGTGCTG+CAGCACATCCAGCACGTCG ((((((((.(.((((((((+)))))))).).)))))))),55.1
20,CGACGTGCGGAATGTGCTG+CAGCACATACGGCACGTCG ((((((((.(.((((((((+)))))))).).)))))))),53.3
21,CGACGTGCGTCATGTGCTG+CAGCACATATGGCACGTCG ((((((((...((((((((+))))))))...)))))))),49.8
22,CGACGTGCACAATGTGCTG+CAGCACATATGGCACGTCG ((((((((...((((((((+))))))))...)))))))),47.7
23,CGACGTGCTGGATGTGCTG+CAGCACATCCGGCACGTCG ((((((((.((((((((((+)))))))))).)))))))),62.9
24,CGACGTGCTAGATGTGCTG+CAGCACATGACGCACGTCG ((((((((...((((((((+))))))))...)))))))),48.1
25,CGACGTGCGATATGTGCTG+CAGCACATGTCGCACGTCG ((((((((((.((((((((+)))))))).)))))))))),61
26,CGACGTGCCAAATGTGCTG+CAGCACATTGGGCACGTCG (((((((((.(((((((((+))))))))).))))))))),59.5

row,Substance,Tm [°C]
1,CGACGTGCGAAATGTGCTG+CAGCACATTTAGCACGTCG ((((((((.((((((((((+)))))))))).)))))))),57.9
2,CGACGTGCCTGATGTGCTG+CAGCACATGTGGCACGTCG (((((((((..((((((((+))))))))..))))))))),54.9
3,CGACGTGCGGCATGTGCTG+CAGCACATCAAGCACGTCG ((((((((...((((((((+))))))))...)))))))),53.6
4,CGACGTGCATAATGTGCTG+CAGCACATGTAGCACGTCG ((((((((...((((((((+))))))))...)))))))),52.6
5,CGACGTGCTAGATGTGCTG+CAGCACATGGTGCACGTCG ((((((((...((((((((+))))))))...)))))))),46.9
6,CGACGTGCCATATGTGCTG+CAGCACATGGCGCACGTCG ((((((((...((((((((+))))))))...)))))))),50.3
7,CGACGTGCAGAATGTGCTG+CAGCACATTACGCACGTCG ((((((((..(((((((((+)))))))))..)))))))),52.7
8,CGACGTGCTTAATGTGCTG+CAGCACATGGAGCACGTCG (((((((((..((((((((+))))))))..))))))))),54.4
9,CGACGTGCCGCATGTGCTG+CAGCACATTCTGCACGTCG ((((((((.(.((((((((+)))))))).).)))))))),48.8
10,CGACGTGCACGATGTGCTG+CAGCACATCCGGCACGTCG ((((((((..(((((((((+)))))))))..)))))))),52.4
11,CGACGTGCCTGATGTGCTG+CAGCACATAACGCACGTCG ((((((((.(.((((((((+)))))))).).)))))))),48.8
12,CGACGTGCCGAATGTGCTG+CAGCACATTCCGCACGTCG ((((((((.((((((((((+)))))))))).)))))))),56
13,CGACGTGCGGTATGTGCTG+CAGCACATTCAGCACGTCG ((((((((.(.((((((((+)))))))).).)))))))),54.2
14,CGACGTGCGTCATGTGCTG+CAGCACATAATGCACGTCG ((((((((.(.((((((((+)))))))).).)))))))),52.2
15,CGACGTGCCAAATGTGCTG+CAGCACATCAGGCACGTCG (((((((((..((((((((+))))))))..))))))))),54.2
16,CGACGTGCTACATGTGCTG+CAGCACATCTCGCACGTCG ((((((((.(.((((((((+)))))))).).)))))))),47.2
17,CGACGTGCTGAATGTGCTG+CAGCACATCTAGCACGTCG (((((((((..((((((((+))))))))..))))))))),53
18,CGACGTGCGGGATGTGCTG+CAGCACATACTGCACGTCG ((((((((.(.((((((((+)))))))).).)))))))),56.9
19,CGACGTGCTTTATGTGCTG+CAGCACATCGGGCACGTCG ((((((((...((((((((+))))))))...)))))))),48.3
20,CGACGTGCGATATGTGCTG+CAGCACATCGAGCACGTCG ((((((((...((((((((+))))))))...)))))))),53.6
21,CGACGTGCGTAATGTGCTG+CAGCACATTCAGCACGTCG ((((((((..(((((((((+)))))))))..)))))))),54.7
22,CGACGTGCATTATGTGCTG+CAGCACATAGTGCACGTCG (((((((((.(((((((((+))))))))).))))))))),53.1
23,CGACGTGCCTCATGTGCTG+CAGCACATTTTGCACGTCG ((((((((...((((((((+))))))))...)))))))),46.6
24,CGACGTGCCACATGTGCTG+CAGCACATGACGCACGTCG ((((((((..(((((((((+)))))))))..)))))))),49.5
25,CGACGTGCGATATGTGCTG+CAGCACATGCAGCACGTCG ((((((((...((((((((+))))))))...)))))))),53.6
26,CGACGTGCTTAATGTGCTG+CAGCACATGTGGCACGTCG ((((((((...((((((((+))))))))...)))))))),51.9
